The target in this assay is SARS-CoV-2 Spike (S) protein on pseudotyped virus or live SARS-CoV-2 (SARS-CoV-2 (BetaCoV/Wuhan-Hu-1/2019 for …, UniProt P0DTC2 14-1273)). Nature of the assay: cell-based or functional assay.

B1: SARS-CoV-2 S310 mAb (antibody, V domains shown)
VH: QVQLVQSGAELKKPGSSVKVSCKASGGTFNSYSFNWVRQAPGQGLEWLGGIIPVLGTSNYAQKFQGRVAVTADEFTTTAYMELSSLRSEDTAVYYCATRTYDSSGYRPYYYGLDVWGQGTPVTVSS
VL: QSALTQPASVSGSPGQSITISCTGTSSDVGSYNLVSWYQQRPGKAPELMIYEVTKRPSGLSNRFSGSKSGNTASLTISGLQAEDEADYYCCSYAGSDTVIFGGGTKVTVL
Consider B1, for which the “Percent neutralization of infection, dilution 2” value was -4%; the “Percent neutralization of infection, dilution 6” value was -15%; the “Percent neutralization of infection, dilution 18” value is -15%; the “Percent neutralization of infection, dilution 54” value was -6%.
